Test [1] concerns the target T1, endopolygalacturonase from Fusarium moniliforme deglycosylated with endo-H (Fusarium moniliforme, UniProt Q07181 25-373, a single GlcNAc residue at each of the four N-glycosylation sites (observed mass 37110 Da against 36198 Da calculated for the polypeptide)).
T1 construct: endopolygalacturonase (PG), Fusarium moniliforme; the same polypeptide as m2, glycans trimmed by endo-H; calculated mass of the polypeptide 36198 Da; also called PG + EndoH; deglycosylated FmPG; source: expressed in Saccharomyces cerevisiae, purified, deglycosylated with endo-H
T1 sequence: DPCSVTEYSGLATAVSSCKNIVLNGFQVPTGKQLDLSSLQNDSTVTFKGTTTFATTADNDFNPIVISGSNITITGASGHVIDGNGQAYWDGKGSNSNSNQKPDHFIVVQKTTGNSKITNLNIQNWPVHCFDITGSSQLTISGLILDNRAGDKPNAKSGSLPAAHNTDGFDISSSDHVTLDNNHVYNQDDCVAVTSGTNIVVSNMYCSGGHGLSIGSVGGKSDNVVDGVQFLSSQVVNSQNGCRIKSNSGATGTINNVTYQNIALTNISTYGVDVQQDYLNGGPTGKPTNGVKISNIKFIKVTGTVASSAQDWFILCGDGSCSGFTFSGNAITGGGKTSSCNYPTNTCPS
Put plainly: SPR; PGIP-2 immobilised by amine coupling on a CM5 chip (4000-5000 RU), BIACORE X; PG solutions in 25 mM ammonium acetate buffer pH 5.0 injected at 5 ul/min; buffer-treated reference flow-cell; bound deglycosylated enzyme eluted with NH4HCO3 pH 8 and analysed by MALDI-TOF MS. The conditions noted are these: both partners purified. In general terms: In SPR one partner is held on a chip, and binding of the other changes the refractive index at the surface.

The target of test [2] is T2, endopolygalacturonase from Fusarium moniliforme, native (glycosylated) enzyme expressed in Saccharomyces … (Fusarium moniliforme, UniProt Q07181 25-373, N-linked high-mannose type glycans (up to 14 Man residues in the chain at Asn65); four potential N-glycosylation sites; glycoforms of 43, 46 and 50 kDa).
T2 construct: endopolygalacturonase (PG), Fusarium moniliforme; calculated mass of the polypeptide 36198 Da (36.2 kDa); also called FmPG; PG; source: expressed in Saccharomyces cerevisiae, purified
T2 sequence: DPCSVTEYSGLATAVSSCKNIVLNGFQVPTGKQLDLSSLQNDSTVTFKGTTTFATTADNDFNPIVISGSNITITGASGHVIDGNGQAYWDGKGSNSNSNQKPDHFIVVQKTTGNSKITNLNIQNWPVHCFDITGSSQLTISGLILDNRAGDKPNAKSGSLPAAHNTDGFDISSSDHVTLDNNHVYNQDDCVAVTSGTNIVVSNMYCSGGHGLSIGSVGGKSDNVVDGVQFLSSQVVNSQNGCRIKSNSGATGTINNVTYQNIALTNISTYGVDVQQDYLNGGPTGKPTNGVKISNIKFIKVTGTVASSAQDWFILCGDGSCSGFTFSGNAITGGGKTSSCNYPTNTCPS
Described as above. The note with it: both partners purified.

Data on one molecule can be found in PMC2447227, “The Interaction Between Endopolygalacturonase From Fusarium Moniliforme and PGIP from Phaseolus Vulgaris Studied by Surface Plasmon Resonance and Mass Spectrometry” (Comparative and Functional Genomics, 2001).

B1: polygalacturonase-inhibiting protein PGIP-2 of Phaseolus vulgaris (natural protein, UniProt P58822 30-342, looked up)
chain: ELCNPQDKQALLQIKKDLGNPTTLSSWLPTTDCCNRTWLGVLCDTDTQTYRVNNLDLSGLNLPKPYPIPSSLANLPYLNFLYIGGINNLVGPIPPAIAKLTQLHYLYITHTNVSGAIPDFLSQIKTLVTLDFSYNALSGTLPPSISSLPNLVGITFDGNRISGAIPDSYGSFSKLFTSMTISRNRLTGKIPPTFANLNLAFVDLSRNMLEGDASVLFGSDKNTQKIHLAKNSLAFDLGKVGLSKNLNGLDLRNNRIYGTLPQGLTQLKFLHSLNVSFNNLCGEIPQGGNLQRFDVSAYANNKCLCGSPLPACT
notes: a leucine-rich repeat protein; also called bean PGIP-2; source: Nicotiana benthamiana plants infected with PVX, purified
In the case of B1, the binding result in test [1] and in test [2] was “binds” throughout.
